For assay [1], the target named is T1, Human BTC (human, UniProt P35070 32-111).
T1 construct: Soluble human BTC of the Biacore, ELISA, MSD and cell assays; also called human betacellulin; soluble human BTC
T1 sequence: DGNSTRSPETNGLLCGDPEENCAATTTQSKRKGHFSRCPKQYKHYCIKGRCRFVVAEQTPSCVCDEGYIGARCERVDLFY
Kind of assay: SPR (Biacore/ProteOn). On the technique in general: In SPR one partner is held on a chip, and binding of the other changes the refractive index at the surface.

Another assay addresses T2, Mouse BTC (mouse, UniProt Q05928 32-111, limits assumed).
T2 sequence (looked up): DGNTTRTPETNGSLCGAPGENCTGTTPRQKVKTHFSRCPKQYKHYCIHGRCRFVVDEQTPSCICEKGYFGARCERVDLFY
Kind of assay: SPR (Biacore/ProteOn).

The target of a further assay is T3, Cyno BTC (cynomolgus, UniProt A0A2K5X5E5 32-111).
T3 construct: also called cynomolgus BTC
T3 sequence: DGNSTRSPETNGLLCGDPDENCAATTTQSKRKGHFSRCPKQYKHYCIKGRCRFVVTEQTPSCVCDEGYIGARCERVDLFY
Nature of the assay: SPR (Biacore/ProteOn).

The next assay addresses T4, Rat BTC (rat, UniProt Q9JJM4 32-111).
T4 sequence: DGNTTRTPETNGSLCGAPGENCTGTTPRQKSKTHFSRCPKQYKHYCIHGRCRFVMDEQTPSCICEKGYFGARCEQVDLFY
Kind of assay: SPR (Biacore/ProteOn).

A further assay addresses T5, Rabbit BTC (rabbit, UniProt G1SJ89 32-111).
T5 sequence: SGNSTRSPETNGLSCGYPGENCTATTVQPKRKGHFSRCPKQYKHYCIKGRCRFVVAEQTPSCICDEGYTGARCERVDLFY
Kind of assay: SPR (Biacore/ProteOn).

For assay [2], the target named is T1, Human BTC. Nature of the assay: cell-based or functional assay.
In assay [3] the target is T6, membrane-bound human BTC on 293F-hBTC cells (human, UniProt P35070 32-111).
T6 sequence: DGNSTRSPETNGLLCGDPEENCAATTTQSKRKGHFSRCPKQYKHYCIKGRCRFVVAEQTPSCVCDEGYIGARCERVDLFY
Nature of the assay: cell-based or functional assay.

In another assay the target is T7, Human VEGF165 (human, UniProt P15692 27-191).
T7 construct: mature; biotinylated in the VEGFR2 ELISAs; also called human VEGF-A; VEGF-A
T7 sequence (P15692 other isoform, or with tags, fused parts or gaps): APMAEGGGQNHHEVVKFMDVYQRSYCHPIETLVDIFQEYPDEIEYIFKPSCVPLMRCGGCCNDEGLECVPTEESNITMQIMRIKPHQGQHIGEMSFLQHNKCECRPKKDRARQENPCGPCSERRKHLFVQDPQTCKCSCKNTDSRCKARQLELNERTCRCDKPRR
Nature of the assay: SPR Biacore T200, anti-Fab capture.

The target in assay [4] is T1, Human BTC. Kind of assay: MSD-based inhibition of BTC binding to ErbB1.
Assay [5] concerns the target T1, Human BTC. Nature of the assay: MSD-based inhibition of BTC binding to ErbB4.
The target in assay [6] is T1, Human BTC. Nature of the assay: cell-based inhibition of BTC binding to ErbB1.
In assay [7] the target is T1, Human BTC. Kind of assay: cell-based inhibition of BTC binding to ErbB4.
Assay [8] has as its target T6, membrane-bound human BTC on 293F-hBTC …. Kind of assay: flow cytometry, 293F cells with BTC against 293F. In general terms: In flow cytometry, cells or beads pass a laser one at a time.
Assay [9] addresses T1, Human BTC. Kind of assay: SPR Biacore T200, anti-Fab capture, antigen as analyte.
Assay [10] has as its target T6, membrane-bound human BTC on 293F-hBTC …. Nature of the assay: flow cytometry on 293F cells with membrane-bound human BTC; y axis % Pos Binding. As to the method:
(§1) After washing the cells, the cells were dissociated using Versene at 37° C. The cells were washed with FACS buffer and plated at 100 μl in a 96 well plate using cells at 1×10⁶ cells/ml. Then 100 μl of a serial dilution of antibodies starting at 50 nM was used. The cells were incubated, washed and then treated with the secondary anti-human Fab-FITC antibody. The antibodies only bound to the cells expressing BTC. After which the cells were washed and analyzed on the Attune Flow Cytometry. All data analysis was carried out using Flow Jo software.
In FIG. 6A, Flow cytometry was used to assess the binding of NVS11 to membrane-bound BTC using an anti-human Fab antibody for detection.

The target of assay [11] is T8, Human BTC-avitag-biotin (human, UniProt P35070 32-111, biotin on the avitag).
T8 construct: also called biotin-BTC; soluble human BTC-avitag-biotin
T8 sequence: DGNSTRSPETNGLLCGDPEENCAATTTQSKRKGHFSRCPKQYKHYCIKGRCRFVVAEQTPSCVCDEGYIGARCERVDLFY
Nature of the assay: flow cytometry: inhibition of biotin-BTC binding to HKB11 cells over-expressing ErbB1; y axis Fluorescent Intensity. As to the method:
(§2) In order to assess potency of the Fabs and bispecific in neutralizing binding of BTC to its receptor Erb 1 or ErbB4, the following assay was performed. HKB11 over-expressing either ErbB1 or ErbB4 cells were plated 1×10⁵ cells/well. Cells were washed once with FACS buffer by spun down at 1200 rpm for 5 minutes and supernatant removed. Next, the Fab sample dilutions and BTC were prepared in FACS buffer. Human BTC-avitag-biotin was diluted to a fixed concentration of 15 nM. The test Fab samples were prepared at a starting concentration of 40 nM and titrated for 9 points at a serial dilution of 1:2. Both biotin-BTC and the test Fab samples are incubated for 30 minutes at room temperature. The pre-incubated samples were then added to the cell plate at 100 μl per well in duplicate and incubated for 1 hour on ice. The plate was then washed once in FACS buffer and spun down at 1200 rpm for 5 minutes and supernatant removed. After suspending the cell pellet with 100 μl/well of diluted secondary antibody streptavidin-Alexa Fluor488 (1:2000) in FACS buffer, the cells were then incubated for 60 min on ice. The cells were washed once with FACS buffer and re-suspended in 120 μl of FACS buffer for flow cytometric analysis.
(§3) Measurements were performed on Attune Flow Cytometry machine. Data were analysed using the Flow Jo software. The live cell populations analysed were gated in forward and side scattering (FSC-A/SSC-A dot plot). The interval gate was established on the control histogram, which was obtained with sample incubated in streptavidin-Alexa Fluor488 only, and subsequently, determined percent of positive binding events of cells carrying membrane-bound receptor ErbB1 or ErbB4 and biotin-BTC. The median of fluorescence intensity (MFI) value was also derived for the live cell population. MFI values were then used to calculate for percent inhibition of test sample and subsequently plotted in GraphPad Prism 7.03 using nonlinear regression (curve fit) model to generate IC50 value.

Assay [12] deals with T8, Human BTC-avitag-biotin. Nature of the assay: flow cytometry: inhibition of biotin-BTC binding to HKB11 cells over-expressing ErbB4; y axis Fluorescent Intensity. As to the method:
as §2, §3

In assay [13] the target is T6, membrane-bound human BTC on 293F-hBTC …. Nature of the assay: flow cytometry on 293F cells with membrane-bound human BTC; y axis % Pos Binding. As to the method:
as §1
This is another data set of the same source.

For orientation: Kd means the free concentration of one partner at which half of the binding sites on the other are occupied at equilibrium, for simple one-to-one binding. A low value points to higher affinity. Broadly, the inhibition is how much of the control response was suppressed. As usually defined, the EC50 is the concentration giving half of the maximal effect. A word on the IC50: it is the point on the concentration scale where inhibition reaches its midpoint.

Like-named read-outs stand apart in the source and are kept apart here.

B1: NVS2 (Fab, V domains shown)
VH: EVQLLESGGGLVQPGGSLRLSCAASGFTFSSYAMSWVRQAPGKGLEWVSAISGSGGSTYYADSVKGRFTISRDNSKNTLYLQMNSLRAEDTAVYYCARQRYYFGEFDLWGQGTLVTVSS
VL: SYELTQPPSVSVSPGQTASITCSGDKLGDKYAYWYQQKPGQSPVLVIYQDSKRPSGIPERFSGSNSGNTATLTISGTQAEDEADYYCQAFDYLYSLGVFGGGTKLTVLG
notes: also called Fab NVS2; anti-BTC Fab
On to B1, for which the Kd with Human BTC [1] worked out at 0.014 nM; with Mouse BTC, 0.009 nM; with Cyno BTC, 0.016 nM; with Rat BTC, 0.021 nM; with Rabbit BTC, 0.005 nM; in the assay with Human BTC [9] it was 0.0047 nM. Besides, in the assay with Human BTC [2], the “A431 pERK (IC50 in nM)” value was 0.37 nM. Moreover, in the assay with Human BTC [2], the “ADR/Res pErbB3 (IC50 in nM)” value was 6.3 nM. Further, in the assay with Human BTC [2], the inhibition was determined as 99.7%. Further, the “Neutralization of juxtacrine signaling” value in assay [3] turned out to be 90%. Further, the binding result with Human VEGF165 was “no binding”. In addition, the “MSD-based binding inhibition BTC/ErbB1” value with Human BTC [4] is over 90%. Besides, the “MSD-based binding inhibition BTC/ErbB4” value with Human BTC [5] was over 90%. The “Cell-based binding inhibition BTC/ErbB1” value with Human BTC [6] was over 90%. The “Cell-based binding inhibition BTC/ErbB4” value in the assay with Human BTC [7] is over 90%. Further, in assay [8], the “Binding to membrane-anchored BTC (median, X above 293F)” value (“Binding to membrane-anchored BTC” for short) is over 10 X above 293F. In assay [10], this molecule registered a half-maximal effective concentration (EC50) of 0.256 nM. In addition, the half-inhibitory concentration (IC50) in the assay with Human BTC-avitag-biotin [11] stood at 1.73 nM; with Human BTC-avitag-biotin [12] it was 1.83 nM.

B2: NVS3 (Fab, V domains shown)
VH: QVQLLESGGGLVQPGGSLRLSCAASGFTFSSYAMSWVRQAPGKGLEWVSGLGHVGYTTYTDSVKGRFTISRDNSKNTLYLQMNSLRAEDTAVYYCARDYLDFGYYFDVWGQGTLVTVSS
VL: SYELTQPLSVSVALGQTARITCSGDKIGKKYVHWYQQKPGQAPVLVIYDDSDRPSGIPERFSGSNSGNTATLTISRAQAGDEADYYCQAWDMQSVVFGGGTKLTVLG
notes: also called Fab NVS3; anti-BTC Fab
B2: the dissociation constant (Kd) with Human BTC [1] is 0.0014 nM; with Mouse BTC, under 0.001 nM; with Cyno BTC, 0.0054 nM; in the assay with Rat BTC it was 0.02 nM; with Rabbit BTC, 0.017 nM; in the assay with Human BTC [9], 0.0044 nM. Also, in the assay with Human BTC [2], the “A431 pERK (column head: IC50 in nM; cell printed as percent)” value was over 90%. Also, the “ADR/Res pErbB3 (IC50 in nM)” value in the assay with Human BTC [2] was 7.89 nM. Also, in assay [3], the “Neutralization of juxtacrine signaling” value turned out to be 99%. In addition, the binding result with Human VEGF165 is “no binding”. In addition, in the assay with Human BTC [4], the “MSD-based binding inhibition BTC/ErbB1” value was over 90%. In addition, the “MSD-based binding inhibition BTC/ErbB4” value in the assay with Human BTC [5] was over 90%. The “Cell-based binding inhibition BTC/ErbB1” value with Human BTC [6] is over 90%. Also, in the assay with Human BTC [7], the “Cell-based binding inhibition BTC/ErbB4” value was over 90%. Moreover, in assay [8], the “Binding to membrane-anchored BTC” value was over 10 X above 293F. Further, the EC50 in assay [10] is 0.322 nM. Also, the IC50 was determined as 1.81 nM with Human BTC-avitag-biotin [11] and 2.04 nM with Human BTC-avitag-biotin [12].

B3: NVS4 (Fab, V domains shown)
VH: QVQLLESGGGLVQPGGSLRLSCAASGFTFSRYWISWVRQAPGKGLEWVSYIDSTGTFINYADSVKGRFTISRDNSKNTLYLQMNSLRAEDTAVYYCARGGSLFDYWGQGTLVTVSS
VL: DIQMTQSPSSLSASVGDRVTITCRASQGIISYLGWYQQKPGKAPKLLIYAASSLQSGVPSRFSGSGSGTDFTLTISSLQPEDFATYYCQQYDALNTFGQGTKVEIKR
notes: also called NVS4 Fab; Fab NVS4
For the molecule B3, the Kd in the assay with Human BTC [1] stood at 0.005 nM; with Mouse BTC it was 0.005 nM; with Cyno BTC, 0.012 nM; with Rat BTC, 0.008 nM; with Rabbit BTC, 0.001 nM; with Human BTC [9] it was 0.0043 nM. In addition, the “A431 pERK (IC50 in nM)” value in the assay with Human BTC [2] amounted to 0.49 nM. In the assay with Human BTC [2], the “ADR/Res pErbB3 (IC50 in nM)” value stood at 6.1 nM. Moreover, in the assay with Human BTC [2], the inhibition amounted to 99.4%. In addition, in assay [3], the “Neutralization of juxtacrine signaling” value was found to be 87%. In the assay with Human BTC [4], the “MSD-based binding inhibition BTC/ErbB1” value is over 90%. In the assay with Human BTC [5], the “MSD-based binding inhibition BTC/ErbB4” value is over 90%. Also, in the assay with Human BTC [6], the “Cell-based binding inhibition BTC/ErbB1” value was over 90%. In the assay with Human BTC [7], the “Cell-based binding inhibition BTC/ErbB4” value was over 90%. In addition, the “Binding to membrane-anchored BTC” value in assay [8] was over 10 X above 293F. The EC50 in assay [13] stood at 0.238 nM. Moreover, the IC50 with Human BTC-avitag-biotin [11] came out at 1.61 nM; with Human BTC-avitag-biotin [12] it was 1.8 nM.

The values are drawn from patent publication US20220025032A1 (Novartis, published 2022).
